Data reported in patent US12397037B2, “Methods and compositions for immunomodulation” (CHILDREN'S MEDICAL CENTER CORPORATION, priority 2014, dated 2025).

Test system: mTORC1 and mTORC2
Assay: Immunoprecipitation of mTOR with raptor and rictor in U87MG cells
Assay type: cell-based, human
Settings: SEMA3F 640 ng/ml, 30 minutes
Procedure: FIG. 29A depicts U87MG cells treated with SEMA3F (640 ng/ml) for 30 minutes and subjected to immunoprecipitation and Western blot analysis with anti-mTOR, -raptor and -rictor as illustrated. FIG. 29B depicts U87MG cells treated with rapamycin (10 nM) or Torin 1 (10 nM) for 30 minutes, prior to SEMA3F (640 ng/ml) treatment for 60 minutes; lysates were analyzed by Western blot. FIG. 29C depicts bar graphs representing densitometric analysis of the illustrated blot showing the fold change in intensity (mean±SD) relative to the untreated control (*, p <0.01; **, p<0.001 vs. untreated control). FIG. 29D depicts U87MG cells transiently transfected with a pcDNA3.1 empty vector or with constitutively active Akt (2DAkt). Cells were treated with SEMA3F (640 ng/ml) and lysates were analyzed by Western blot. All data are representative of 3 independent experiments.
FIGS. 35A-35B depict analysis of the effect of SEMA3F on mTORC2 activity. […] depicts a Western blot. U87MG cells were transiently transfected with a pcDNA3.1 empty vector or with constitutively active Akt (2DAkt). Cells were treated with SEMA3F (640 ng/ml) and lysates were analyzed by Western blot. FIG. 35B depicts a Western blot. U87MG cells were transiently transfected with a pcDNA3.1 empty vector or with 2DAkt. […]

B1: SEMA3F: Human recombinant full-length His-Myc-tagged SEMA3F, secreted by transfected 293T cells and purified; class 3 semaphorin, NRP-2 ligand (protein, listed as Homo sapiens)
chain: MLVAGLLLWASLLTGAWPSFPTQDHLPATPRVRLSFKELKATGTAHFFNFLLNTTDYRILLKDEDHDRMYVGSKDYVLSLDLHDINREPLIIHWAASPQRIEECVLSGKDVNGECGNFVRLIQPWNRTHLYVCGTGAYNPMCTYVNRGRRAQATPWTQTQAVRGRGSRATDGALRPMPTAPRQDYIFYLEPERLESGKGKCPYDPKLDTASALINEELYAGVYIDFMGTDAAIFRTLGKQTAMRTDQYNSRWLNDPSFIHAELIPDSAERNDDKLYFFFRERSAEAPQSPAVYARIGRICLNDDGGHCCLVNKWSTFLKARLVCSVPGEDGIETHFDELQDVFVQQTQDVRNPVIYAVFTSSGSVFRGSAVCVYSMADIRMVFNGPFAHKEGPNYQWMPFSGKMPYPRPGTCPGGTFTPSMKSTKDYPDEVINFMRSHPLMYQAVYPLQRRPLVVRTGAPYRLTTIAVDQVDAADGRYEVLFLGTDRGTVQKVIVLPKDDQELEELMLEEVEVFKDPAPVKTMTISSKRQQLYVASAVGVTHLSLHRCQAYGAACADCCLARDPYCAWDGQACSRYTASSKRRSRRQDVRHGNPIRQCRGFNSNANKNAVESVQYGVAGSAAFLECQPRSPQATVKWLFQRDPGDRRREIRAEDRFLRTEQGLLLRALQLSDRGLYSCTATENNFKHVVTRVQLHVLGRDAVHAALFPPLSMSAPPPPGAGPPTPPYQELAQLLAQPEVGLIHQYCQGYWRHVPPSPREAPGAPRSPEPQDQKKPRNRRHHPPDT
modifications: His-Myc tag
notes: Human recombinant full-length His-Myc-tagged SEMA3F, secreted by transfected 293T cells and purified; class 3 semaphorin, NRP-2 ligand
Which results are given for B1?
association between mTOR and raptor / rictor: inhibited the association between mTOR and both raptor and rictor; mTOR/rictor interaction in 2DAkt transfected cells: inhibited mTOR/rictor interaction
